Patent publication US20220026429A1, “COMPOSITIONS AND METHODS OF ALTERING A NUCLEIC ACID WITH RIBONUCLEASE” (The Research Foundation for the State University of New York, priority 2020, published 2022)

Legend:
RNase H = target: T1, RNase H (Escherichia coli, UniProt P0A7Y4); test: DNA nanoswitch RNase H inhibition assay (gel readout); type: biochemical; conditions: nanoswitch incubated with different concentrations of kanamycin, then RNase H (0.5 U) added; FIG. 4F; read-out: IC50 value, inhibition of the RNA cleavage activity of RNase H
T1 construct: purchased New England Biolabs (NEB)
Experimental: (§1) Locked nanoswitches, such as DNA-nanoswitch-nucleic acid constructs were first mixed with RNase H buffer (1× final) and placed at 37° C. 1 μl of RNase H (different units/μl) was added to 10 μl of locked nanoswitches such as DNA-nanoswitch-nucleic acid constructs and incubated at 37° C. For sensitivity experiments, samples were incubated for 1 hour at 37° C. For time series experiments, RNase H enzyme was added at different time points (from 16 mins to 0 min). After incubation, samples were mixed with 1 μl GelRed (1×final) and 2 μl loading dye (15% Ficoll, 0.1% bromophenol blue), and run on 0.8% agarose gels. A similar protocol was used for the other enzymes.
(§2) Nanoswitches were run in 0.8% agarose gels, cast from molecular biology grade agarose (Fisher BioReagents) dissolved in 0.5×Tris-borate EDTA (TBE). Gels were typically run at 75 V (constant voltage) at room temperature. Samples were pre-stained by mixing 1× GelRed stain with the samples before loading. Gels were imaged with a Bio-Rad Gel Doc XR+gel imager and analyzed using ImageJ.
Next, the potential of assays of the present disclosure was tested for screening RNase H inhibitors. […] To further make a rapid readout, a start-to-finish assay was performed within 15 mins, by incubating the nanoswitches with RNase H for 5 mins followed by agarose gel electrophoresis for 10 mins (FIG. 4G). […]

[1] = system: locked nanoswitches (RNA lock strand); test: DNA nanoswitch RNase activity assay, panel of RNases; type: biochemical; conditions: agarose gel readout, FIG. 4E
Experimental: as §1, §2
As a step toward testing ribonuclease presence in biological samples, a known concentration of RNase H was spiked into fetal bovine serum (FBS) and cell lysates extracted from human (HeLa) and murine (C2C12) cell lines. RNase detection was preserved in 10% FBS and cell lysates with the unlocking of the DNA nanoswitch in both biofluids (FIGS. 4B-4C).

T1 sequence (P0A7Y4 whole entry): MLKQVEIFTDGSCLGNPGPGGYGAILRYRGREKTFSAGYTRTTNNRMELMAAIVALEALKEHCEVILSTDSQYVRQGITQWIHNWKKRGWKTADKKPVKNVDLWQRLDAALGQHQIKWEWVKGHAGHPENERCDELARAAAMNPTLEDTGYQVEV

Molecule: NC[C@H]1O[C@H](O[C@H]2[C@H](O)[C@@H](O[C@H]3O[C@H](CO)[C@@H](O)[C@H](N)[C@H]3O)[C@H](N)C[C@@H]2N)[C@H](O)[C@@H](O)[C@@H]1O [kanamycin]
- IC50 (RNase H): 30.6 mM

B1: RNase A: endonucleases from Enzyme Class EC 3.1.27.5 (protein, UniProt P61823 27-150, looked up)
Ribonuclease pancreatic: KETAAAKFERQHMDSSTSAASSSNYCNQMMKSRNLTKDRCKPVNTFVHESLADVQAVCSQKNVACKNGQTNCYQSYSTMSITDCRETGSSKYPNCAYKTTQANKHIIVACEGNPYVPVHFDASV
- response of the locked nanoswitches (unlooping) to RNases [1]: high levels of unlooping

B2: RNase T: ribonuclease enzyme purchased from New England Biolabs (protein, UniProt P30014 1-215, looked up)
Ribonuclease T: MSDNAQLTGLCDRFRGFYPVVIDVETAGFNAKTDALLEIAAITLKMDEQGWLMPDTTLHFHVEPFVGANLQPEALAFNGIDPNDPDRGAVSEYEALHEIFKVVRKGIKASGCNRAIMVAHNANFDHSFMMAAAERASLKRNPFHPFATFDTAALAGLALGQTVLSKACQTAGMDFDSTQAHSALYDTERTAVLFCEIVNRWKRLGGWPLSAAEEV
- response of the locked nanoswitches (unlooping) to RNases [1]: no activity
